# B1: recombinant porcine aminopeptidase N ectodomain (residues 63-963) (domain or fragment, UniProt P15145 63-963, looked up)
# chain: QSKPWNRYRLPTTLLPDSYNVTLRPYLTPNADGLYIFKGKSIVRLLCQEPTDVIIIHSKKLNYTTQGHMVVLRGVGDSQVPEIDRTELVELTEYLVVHLKGSLQPGHMYEMESEFQGELADDLAGFYRSEYMEGNVKKVLATTQMQSTDARKSFPCFDEPAMKATFNITLIHPNNLTALSNMPPKGSSTPLAEDPNWSVTEFETTPVMSTYLLAYIVSEFQSVNETAQNGVLIRIWARPNAIAEGHGMYALNVTGPILNFFANHYNTSYPLPKSDQIALPDFNAGAMENWGLVTYRENALLFDPQSSSISNKERVVTVIAHELAHQWFGNLVTLAWWNDLWLNEGFASYVEYLGADHAEPTWNLKDLIVPGDVYRVMAVDALASSHPLTTPAEEVNTPAQISEMFDSISYSKGASVIRMLSNFLTEDLFKEGLASYLHAFAYQNTTYLDLWEHLQKAVDAQTSIRLPDTVRAIMDRWTLQMGFPVITVDTKTGNISQKHFLLDSESNVTRSSAFDYLWIVPISSIKNGVMQDHYWLRDVSQAQNDLFKTASDDWVLLNVNVTGYFQVNYDEDNWRMIQHQLQTNLSVIPVINRAQVIYDSFNLATAHMVPVTLALDNTLFLNGEKEYMPWQAALSSLSYFSLMFDRSEVYGPMKKYLRKQVEPLFQHFETLTKNWTERPENLMDQYSEINAISTACSNGLPQCENLAKTLFDQWMSDPENNPIHPNLRSTIYCNAIAQGGQDQWDFAWGQLQQAQLVNEADKLRSALACSNEVWLLNRYLGYTLNPDLIRKQDATSTINSIASNVIGQPLAWDFVQSNWKKLFQDYGGGSFSFSNLIQGVTRRFSSEFELQQLEQFKKNNMDVGFGSGTRALEQALEKTKANIKWVKENKEVVLNWFIEHS
# Molecular target: the molecule itself
# Assay: SEC
protein,measurement,value
B1,stoichiometry N,2

# Reference: PMC7112428 (International Journal of Biological Macromolecules, 2018)
